Data on one molecule can be found in patent US10538591B2, “Anti-fibulin-3 antibodies and uses thereof” (THE BRIGHAM AND WOMEN'S HOSPITAL, INC., priority 2014, dated 2020).

“Also recorded” adds a separate entry of the source.

For test [1], the target named is T1, fibulin-3 in human primary glioblastoma (Homo sapiens, UniProt Q12805).
T1 construct: specificity of mAb428.3C11 to detect native fibulin-3 in tumor tissue; from tissue; host or cells: frozen sections of human primary glioblastoma
T1 sequence (Q12805 18-493): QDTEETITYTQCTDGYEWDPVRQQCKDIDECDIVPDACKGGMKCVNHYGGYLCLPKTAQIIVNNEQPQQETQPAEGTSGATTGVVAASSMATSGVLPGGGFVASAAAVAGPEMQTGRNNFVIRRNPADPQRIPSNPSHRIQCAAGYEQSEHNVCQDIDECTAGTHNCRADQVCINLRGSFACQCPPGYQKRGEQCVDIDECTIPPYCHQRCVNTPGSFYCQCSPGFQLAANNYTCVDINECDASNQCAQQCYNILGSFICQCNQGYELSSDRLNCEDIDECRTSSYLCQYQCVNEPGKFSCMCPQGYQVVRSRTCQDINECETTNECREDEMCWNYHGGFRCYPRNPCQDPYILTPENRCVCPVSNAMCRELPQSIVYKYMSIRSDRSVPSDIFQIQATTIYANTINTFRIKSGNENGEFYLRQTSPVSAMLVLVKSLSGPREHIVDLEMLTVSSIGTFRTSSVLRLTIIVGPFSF
The test is described as follows: Immunohistochemistry of human primary glioblastoma sections. The note with it: anti-Fib3/911 10 μg/ml, mAb428.3C11 40 μg/ml, mAb3-5 5 μg/ml. As to the method:
Frozen sections of human primary glioblastoma and normal adult human brain were fixed in ethanol/acetate buffer and processed for immunohistochemistry with the following anti-fibulin-3 antibodies: rabbit polyclonal anti-Fib3/911 (10 μg/ml), mouse monoclonal anti-fibulin-3 mAb428.3C11 (40 μg/ml), and a commercial mouse monoclonal antibody against human fibulin-3 (mAb3-5, 5 μg/ml, Santa Cruz Biotechnology). […] Both in-house generated antibodies show stronger staining in the tumor parenchyma compared to the commercial antibody. In all cases, staining is particularly intense around tumor blood vessels. […] Sections were counterstained to identify endothelial markers and cell nuclei by staining with anti-CD31 and DAPI respectively. (Data not shown).
Specific and striking fibrillar staining patterns of fibulin-3 were observed around tumor blood vessels (magnification: 40×). […] Endothelial cells were stained with anti-CD31 and cell nuclei with the dye DAPI. (Data not shown).

For another test, the target named is T2, purified human fibulin-3 (Homo sapiens, UniProt Q12805).
T2 construct: purchased ORIGENE
T2 sequence (Q12805 18-493): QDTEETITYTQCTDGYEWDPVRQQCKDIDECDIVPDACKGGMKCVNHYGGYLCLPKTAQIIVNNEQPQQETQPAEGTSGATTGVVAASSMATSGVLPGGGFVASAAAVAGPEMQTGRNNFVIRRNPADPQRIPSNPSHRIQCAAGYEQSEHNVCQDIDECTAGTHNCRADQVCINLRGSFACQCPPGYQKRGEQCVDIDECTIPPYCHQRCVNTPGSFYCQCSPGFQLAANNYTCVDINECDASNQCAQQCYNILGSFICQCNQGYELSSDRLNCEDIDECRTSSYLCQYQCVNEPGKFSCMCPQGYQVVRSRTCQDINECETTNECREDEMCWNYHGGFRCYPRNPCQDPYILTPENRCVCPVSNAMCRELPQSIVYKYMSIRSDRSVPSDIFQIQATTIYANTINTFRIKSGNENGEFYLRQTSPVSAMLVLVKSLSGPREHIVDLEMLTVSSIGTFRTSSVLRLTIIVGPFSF
Description: Western blot and dot-blot detection of fibulin-3. It counts as binding. As to the method:
CNSI glioma cells were transfected with fibulin-3 cDNA (fib3-OE cells) or a control plasmid (control cells) and cultured for 24 h in serum-free conditions. Conditioned medium was collected and probed by Western blotting with anti-Fib3/911 (911), anti-Fib3/912 (912), or their respective preimmune sera (antibodies and sera were used at 1/5000 dilution).
Two rabbit polyclonal antibodies were commissioned against the 23-amino acid peptide sequence of fibulin-3 involved in Notch activation. The peptide was minimally modified to facilitate the formation of a disulfide bridge necessary to form a conformational, tri-dimensional epitope (FIG. 4). Antibodies against fibulin-3 (“anti-Fib3/911” and “anti-Fib3/912”) were purified by affinity chromatography, aliquoted, and prepared in phosphate-buffered saline (PBS) solution for all subsequent tests.
Purified human fibulin-3 (200 ng/lane, ORIGENE) was subjected to SDS-PAGE in reducing and non-reducing conditions and probed with affinity-purified mAb428.3C11 (0.4 to 20 μg/ml, diluted in PBS from a 2 mg/ml stock).
Concentrated, serum-free culture medium from HEK293 cells (1 mg/ml total protein) was probed with anti-human IgG secondary antibody (HRP conjugate) to detect the chains of antibody in reducing and non-reducing conditions. C) Concentrated medium from HEK293 cells (1 mg/ml total protein) was directly used to probe purified human fibulin-3 (resolved by SDS-PAGE in non-reducing conditions).

B1: mAb428.2: mouse monoclonal IgG1 kappa antibody against human fibulin-3 peptide SEQ ID NO:2; VH SEQ ID NO: 3, VL SEQ ID NO: 4 (antibody, V domains shown)
VH: QIQLVQSGPELKKPGETVKISCKASGYSFTTYGMSWVKQAPGKGLKWMGWINTYSGVPTYADDFKGRFAFFLETSASTAYLQINNLKNEDTATYFCARWVDYWGQGTTLTVSS
VL: DIKMTQSPSSMYASLGERVTITCKASQDIKSYLSWHQQKPWKSPKTLIYYATSLADGVPSRFSGSGSGQDYSLTISSLESDDTATYYCLQHGKSPYTFGGGTKLEIK
For the molecule B1, the “fibulin-3 staining in glioblastoma tissue” value was “detected fibulin-3 in the stroma and capillaries of human GBM” in test [1]; “Specific staining of fibulin-3 in tumor tissue; also recorded: detected the same fibrillar pattern observed with a commercial anti-fibulin-3 antibody” in test [1] (listed as mAb428.3C11). Moreover, in the test with purified human fibulin-3 (SDS-PAGE, reducing and/or non-reducing conditions), the “detection of fibulin-3 by Western blotting” value is listed as “high sensitivity of the antibody towards fibulin-3”. The “detection of native fibulin-3 by dot-blotting” value in the test with purified human fibulin-3 (non-reduced fibulin-3 on nitrocellulose, scFv428.2 medium 1 mg/ml, mAb428.2 1 μg/ml) is recorded as “able to detect native fibulin-3 by dot-blotting”.
